{
  "source": "patent US20210246204A1",
  "about": "(Alector, published 2021)",
  "binders": {"B1": {"name": "S7AB-H8.43 (antibody, V domains shown)", "VH": "QVQLVQSGAEVKKPGASVKVSCKASGYAFTGYWMNWVRQAPGQGLEWIGRIFPGLGHTNYAQKFQGRATLTEDTSTSTAYMELSSLRSEDTAVYYCARDYSDYYFDYWGQGTLVTVSS", "VL": "DIQMTQSPSSLSASVGDRVTITCRGSQDINTYLNWYQQKPGKAPKLLIYYTSRLHSGVPSRFSGSGSGTDYTLTISSLQPEDFATYYCQQGNILPWTFGQGTKLEIK", "notes": "also called S7AB-H.43"}, "B2": {"name": "S7AB-H8.45 (antibody, V domains shown)", "VH": "B1 VH with G31E, Y32A, L55Y", "VL": "B1 VL"}, "B3": {"name": "S7AB-H8.38 (antibody, V domains shown)", "VH": "B1 VH", "VL": "B1 VL with I93V"}, "B4": {"name": "S7AB-H8.36 (antibody, V domains shown)", "VH": "B1 VH with G31E, Y32T", "VL": "B1 VL with I93V"}, "B5": {"name": "S7AB-H8.44 (antibody, V domains shown)", "VH": "B1 VH with G31A, Y32A", "VL": "B1 VL"}, "B6": {"name": "S7AB-H8.40 (antibody, V domains shown)", "VH": "B1 VH with G31E, Y32A, L55Y", "VL": "B1 VL with I93V"}, "B7": {"name": "S7AB-H8.42 (antibody, V domains shown)", "VH": "B1 VH with G31M, Y32A, L55Y", "VL": "B1 VL"}, "B8": {"name": "S7AB-H8.37 (antibody, V domains shown)", "VH": "B1 VH with G31M, Y32A, L55Y", "VL": "B1 VL with I93V"}, "B9": {"name": "S7AB-H8.35 (antibody, V domains shown)", "VH": "B1 VH with G31E, Y32A, L55Y", "VL": "B1 VL with N92G, I93T"}, "B10": {"name": "S7AB-H8.41 (antibody, V domains shown)", "VH": "B1 VH with G31E, Y32T", "VL": "B1 VL"}, "B11": {"name": "S7AB-H8.34 (antibody, V domains shown)", "VH": "B1 VH with G31A, Y32A", "VL": "B1 VL with N92G, I93T"}, "B12": {"name": "S7AB-H8.39 (antibody, V domains shown)", "VH": "B1 VH with G31A, Y32A", "VL": "B1 VL with I93V"}, "B13": {"name": "S7AB (antibody, V domains shown)", "VH": "QVHLQQSGPELVKPGASVKISCKASGYAFTNCWMNWVRQRPGKGLDWIGRIFPGNGHTNYSGKFKDKATLTEDKSSSTAYMQLSSLTSEDSAVYFCARDYSDYYFDYWGQGTTLTVSS", "VL": "DVQMTQTTSSLSASLGDRVTISCRASQDINTYLNWYQQKPDGTVKLLIYYTSRLHSGVPSRFSGSGSGTDYSLTISNLEQEDIATYFCQQGNTLPWTFGGGTKLEIK", "notes": "Parental mouse antibody; also called S7-10B5.1; mouse anti-human Siglec-7 antibody"}, "B14": {"name": "S7AB-H1 (antibody, V domains shown)", "VH": "B1 VH with G31N, Y32C, I48M, L55N, A68V, L70M, E72R, A79V", "VL": "B1 VL with G25A, Y71F, I93T"}, "B15": {"name": "S7AB-H4 (antibody, V domains shown)", "VH": "B1 VH with G31N, Y32C, L55N, A68V, L70M, A79V", "VL": "B1 VL with G25A, Y71F, I93T"}, "B16": {"name": "S7AB-H3 (antibody, V domains shown)", "VH": "B1 VH with G31N, Y32C, I48M, L55N, A68V, L70M, E72R, A79V", "VL": "B1 VL with I2V, G25A, I93T"}, "B17": {"name": "S7AB-H2 (antibody, V domains shown)", "VH": "B1 VH with G31N, Y32C, I48M, L55N, A68V, L70M, E72R, A79V", "VL": "B1 VL with G25A, I93T"}},
  "note": "Numbering of substitutions follows the chain as printed.",
  "data": [
    {"target": "T1, histidine-tagged human Siglec-7 (NovoProtein) (human, UniProt Q9Y286 19-353)", "T1 construct": "Bought protein; also called recombinant human Siglec-7; recombinant Siglec-7; not shown: histidine tag", "T1 sequence (Q9Y286 19-353 limits assumed)": "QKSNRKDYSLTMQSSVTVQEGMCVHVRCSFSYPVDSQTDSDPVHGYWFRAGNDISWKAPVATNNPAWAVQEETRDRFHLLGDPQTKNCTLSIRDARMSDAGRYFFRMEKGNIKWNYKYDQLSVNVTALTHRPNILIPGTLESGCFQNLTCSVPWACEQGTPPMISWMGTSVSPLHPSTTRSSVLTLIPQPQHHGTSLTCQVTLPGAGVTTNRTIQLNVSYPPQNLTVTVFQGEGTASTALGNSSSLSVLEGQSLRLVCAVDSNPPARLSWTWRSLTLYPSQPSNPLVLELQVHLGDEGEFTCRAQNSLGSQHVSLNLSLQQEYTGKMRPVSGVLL", "experiment": "BLI, antibody captured", "summary_of_the_method": "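Antibodies captured on anti-human or anti-mouse IgG Fc biosensors; His-tagged human Siglec-7 flowed at 0–100 nM (200 s association, 900 s dissociation). ka and kd from 1:1 multi-concentration fit; apparent KD = kd/ka.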", "units": {"Kd": "nM", "fold improvement over S7AB-H8": "fold", "koff": "s⁻¹", "kon": "M⁻¹ s⁻¹"}, "values": [
      {"binder": "B1", "Kd": 0.256, "fold improvement over S7AB-H8": 4.1, "koff": "5.84e-05", "kon": 228000},
      {"binder": "B2", "Kd": 0.444, "fold improvement over S7AB-H8": 2.4, "koff": "7.55e-05", "kon": 170000},
      {"binder": "B3", "Kd": 0.324, "fold improvement over S7AB-H8": 3.2, "koff": "7.4e-05", "kon": 229000},
      {"binder": "B4", "Kd": 0.605, "fold improvement over S7AB-H8": 1.7, "koff": "9.81e-05", "kon": 162000},
      {"binder": "B5", "Kd": 0.198, "fold improvement over S7AB-H8": 5.3, "koff": "3.71e-05", "kon": 188000},
      {"binder": "B6", "Kd": 0.425, "fold improvement over S7AB-H8": 2.5, "koff": "6.29e-05", "kon": 148000},
      {"binder": "B7", "Kd": 0.126, "fold improvement over S7AB-H8": 8.3, "koff": "2.42e-05", "kon": 191000},
      {"binder": "B8", "Kd": 0.135, "fold improvement over S7AB-H8": 7.8, "koff": "2.5e-05", "kon": 186000},
      {"binder": "B9", "Kd": 0.607, "fold improvement over S7AB-H8": 1.7, "koff": "6.57e-05", "kon": 108000},
      {"binder": "B10", "Kd": 0.531, "fold improvement over S7AB-H8": 2, "koff": "9.12e-05", "kon": 172000},
      {"binder": "B11", "Kd": 0.237, "fold improvement over S7AB-H8": 4.4, "koff": "2.81e-05", "kon": 119000},
      {"binder": "B12", "Kd": 0.215, "fold improvement over S7AB-H8": 4.9, "koff": "3.56e-05", "kon": 166000}
    ]},
    {"target": "T2, human Siglec-7 on primary human monocyte-derived dendritic cells (human, UniProt Q9Y286 19-467)", "T2 sequence (Q9Y286 19-467)": "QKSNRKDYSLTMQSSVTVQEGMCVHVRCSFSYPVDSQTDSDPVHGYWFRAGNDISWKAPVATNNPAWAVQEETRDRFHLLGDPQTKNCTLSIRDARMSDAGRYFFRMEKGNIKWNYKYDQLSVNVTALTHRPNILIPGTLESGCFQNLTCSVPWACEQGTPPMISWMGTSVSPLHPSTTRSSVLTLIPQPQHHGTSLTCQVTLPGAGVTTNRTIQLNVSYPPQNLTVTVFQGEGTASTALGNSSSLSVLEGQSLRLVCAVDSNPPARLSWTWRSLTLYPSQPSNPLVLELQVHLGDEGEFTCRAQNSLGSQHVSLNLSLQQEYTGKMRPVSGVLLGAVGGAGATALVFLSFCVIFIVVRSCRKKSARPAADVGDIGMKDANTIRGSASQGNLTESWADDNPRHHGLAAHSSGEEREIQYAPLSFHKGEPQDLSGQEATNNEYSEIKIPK", "experiment": "cell-based or functional assay", "units": {"Fold increase in potency compared to AB-H8": "fold", "Fold increase in potency compared to Chimeric Ab": "fold", "Maximal downregulation (% Siglec-7 remaining)": "%", "Receptor downregulation, (EC50) (pM)": "pM"}, "values": [
      {"binder": "B1", "Fold increase in potency compared to AB-H8": 10.2, "Fold increase in potency compared to Chimeric Ab": 30.8, "Maximal downregulation (% Siglec-7 remaining)": 17.1, "Receptor downregulation, (EC50) (pM)": 33.2},
      {"binder": "B2", "Fold increase in potency compared to AB-H8": 3.4, "Fold increase in potency compared to Chimeric Ab": 10.4, "Maximal downregulation (% Siglec-7 remaining)": 6.9, "Receptor downregulation, (EC50) (pM)": 98.6},
      {"binder": "B3", "Fold increase in potency compared to AB-H8": 4.8, "Fold increase in potency compared to Chimeric Ab": 14.5, "Maximal downregulation (% Siglec-7 remaining)": 17.1, "Receptor downregulation, (EC50) (pM)": 70.4},
      {"binder": "B4", "Fold increase in potency compared to AB-H8": 2.7, "Fold increase in potency compared to Chimeric Ab": 8.2, "Maximal downregulation (% Siglec-7 remaining)": 11.4, "Receptor downregulation, (EC50) (pM)": 125},
      {"binder": "B5", "Fold increase in potency compared to AB-H8": 5.6, "Fold increase in potency compared to Chimeric Ab": 16.7, "Maximal downregulation (% Siglec-7 remaining)": 3.6, "Receptor downregulation, (EC50) (pM)": 61.2},
      {"binder": "B6", "Fold increase in potency compared to AB-H8": 2.9, "Fold increase in potency compared to Chimeric Ab": 8.9, "Maximal downregulation (% Siglec-7 remaining)": 9.4, "Receptor downregulation, (EC50) (pM)": 115},
      {"binder": "B7", "Fold increase in potency compared to AB-H8": 5.4, "Fold increase in potency compared to Chimeric Ab": 16.4, "Maximal downregulation (% Siglec-7 remaining)": 3.3, "Receptor downregulation, (EC50) (pM)": 62.6},
      {"binder": "B8", "Fold increase in potency compared to AB-H8": 4.8, "Fold increase in potency compared to Chimeric Ab": 14.3, "Maximal downregulation (% Siglec-7 remaining)": 3.4, "Receptor downregulation, (EC50) (pM)": 71.4},
      {"binder": "B9", "Fold increase in potency compared to AB-H8": 1.6, "Fold increase in potency compared to Chimeric Ab": 5, "Maximal downregulation (% Siglec-7 remaining)": 9.3, "Receptor downregulation, (EC50) (pM)": 206},
      {"binder": "B10", "Fold increase in potency compared to AB-H8": 3.2, "Fold increase in potency compared to Chimeric Ab": 9.5, "Maximal downregulation (% Siglec-7 remaining)": 9.6, "Receptor downregulation, (EC50) (pM)": 108},
      {"binder": "B11", "Fold increase in potency compared to AB-H8": 2.9, "Fold increase in potency compared to Chimeric Ab": 8.7, "Maximal downregulation (% Siglec-7 remaining)": 3.6, "Receptor downregulation, (EC50) (pM)": 118},
      {"binder": "B12", "Fold increase in potency compared to AB-H8": 6, "Fold increase in potency compared to Chimeric Ab": 18, "Maximal downregulation (% Siglec-7 remaining)": 4.3, "Receptor downregulation, (EC50) (pM)": 56.8}
    ]},
    {"target": "T1, histidine-tagged human Siglec-7 …", "experiment": "BLI (ForteBio), antibody captured", "description": "In this assay, the humanized antibodies were compared directly to S7AB. Briefly, the antibodies were captured on anti-human or anti-mouse IgG Fc Biosensors (Pall ForteBio). Varying concentrations (0-100 nM) of histidine-tagged human Siglec-7 (NovoProtein) were then bound to the captured anti-Siglec-7 surface (200 s association time, 900 s dissociation time). Multi-concentration kinetic analysis was performed using a 1:1 interaction model to extract association and dissociation rate constants (kₐ and kd, respectively) for each antibody. Apparent affinity constants (KD) were calculated from the ratio kd/kₐ.", "units": {"Kd": "nM", "koff": "s⁻¹", "kon": "M⁻¹ s⁻¹"}, "values": [
      {"binder": "B13", "Kd": 1.24, "koff": 0.000242, "kon": 195000}
    ]},
    {"target": "T2, human Siglec-7 on primary human …", "experiment": "flow cytometry, primary human dendritic cells", "description": "The 12 humanized antibodies of S7AB were evaluated for binding to primary dendritic cells by flow cytometry. Monocytes were isolated from blood from healthy human donors using the RosetteSep™ monocyte isolation antibody cocktail (StemCell Technologies). The isolated monocytes were differentiated into dendritic cells with 100 ng/mL GM-CSF and 100 ng/mL IL-4 (Peprotech). Dendritic cells were incubated with dilutions of the anti-Siglec-7 antibodies for 30 minutes on ice in the dark, followed by a 30-minute incubation with a fluorescently-conjugated anti-human IgG secondary antibody. Cells were washed twice in FACS buffer (PBS+2% FBS, 2 mM EDTA), and flow cytometry was performed on a BD FACS Canto. Data were analyzed using FlowJo software (Ashland, Oreg.).", "units": {"EC50": "nM"}, "values": [
      {"binder": "B14", "EC50": 4.6},
      {"binder": "B15", "EC50": 3.2},
      {"binder": "B16", "EC50": 1.6},
      {"binder": "B17", "EC50": 1.8}
    ]}
  ]
}
